What was measured:
nup62_human NUP62 = nup62_human NUP62 (UniProt P37198)
prps1_human PRPS1 = target: T1, prps1_human PRPS1 (UniProt P60891)
T1 sequence: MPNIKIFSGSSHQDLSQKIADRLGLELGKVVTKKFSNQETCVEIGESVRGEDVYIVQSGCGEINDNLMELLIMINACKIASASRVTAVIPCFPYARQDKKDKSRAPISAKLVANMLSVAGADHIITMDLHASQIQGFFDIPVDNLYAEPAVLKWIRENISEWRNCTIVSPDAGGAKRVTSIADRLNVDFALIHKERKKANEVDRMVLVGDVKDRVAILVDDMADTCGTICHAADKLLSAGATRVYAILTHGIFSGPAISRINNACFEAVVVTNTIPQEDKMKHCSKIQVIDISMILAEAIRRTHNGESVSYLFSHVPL

prdx3_human PRDX3 = target: T2, prdx3_human PRDX3 (UniProt P30048)
T2 sequence: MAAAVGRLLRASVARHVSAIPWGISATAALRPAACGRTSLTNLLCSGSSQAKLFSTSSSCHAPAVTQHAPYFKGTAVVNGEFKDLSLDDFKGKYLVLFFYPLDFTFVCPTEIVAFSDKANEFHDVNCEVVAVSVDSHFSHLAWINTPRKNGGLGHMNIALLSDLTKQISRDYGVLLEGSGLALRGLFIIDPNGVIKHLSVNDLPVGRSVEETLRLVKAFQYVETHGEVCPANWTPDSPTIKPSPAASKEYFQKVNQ

tle5_human TLE5 = target: T3, tle5_human TLE5 (UniProt Q08117)
T3 sequence: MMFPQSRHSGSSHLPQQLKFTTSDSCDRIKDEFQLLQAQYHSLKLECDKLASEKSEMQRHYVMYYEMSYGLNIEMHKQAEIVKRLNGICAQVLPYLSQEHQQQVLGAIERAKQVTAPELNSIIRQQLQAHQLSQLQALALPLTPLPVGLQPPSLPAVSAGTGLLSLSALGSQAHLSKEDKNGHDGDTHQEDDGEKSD

zmat1_human ZMAT1 = zmat1_human ZMAT1 (UniProt Q5H9K5)
zmat1_human ZMAT1, sequence (Q5H9K5 whole entry): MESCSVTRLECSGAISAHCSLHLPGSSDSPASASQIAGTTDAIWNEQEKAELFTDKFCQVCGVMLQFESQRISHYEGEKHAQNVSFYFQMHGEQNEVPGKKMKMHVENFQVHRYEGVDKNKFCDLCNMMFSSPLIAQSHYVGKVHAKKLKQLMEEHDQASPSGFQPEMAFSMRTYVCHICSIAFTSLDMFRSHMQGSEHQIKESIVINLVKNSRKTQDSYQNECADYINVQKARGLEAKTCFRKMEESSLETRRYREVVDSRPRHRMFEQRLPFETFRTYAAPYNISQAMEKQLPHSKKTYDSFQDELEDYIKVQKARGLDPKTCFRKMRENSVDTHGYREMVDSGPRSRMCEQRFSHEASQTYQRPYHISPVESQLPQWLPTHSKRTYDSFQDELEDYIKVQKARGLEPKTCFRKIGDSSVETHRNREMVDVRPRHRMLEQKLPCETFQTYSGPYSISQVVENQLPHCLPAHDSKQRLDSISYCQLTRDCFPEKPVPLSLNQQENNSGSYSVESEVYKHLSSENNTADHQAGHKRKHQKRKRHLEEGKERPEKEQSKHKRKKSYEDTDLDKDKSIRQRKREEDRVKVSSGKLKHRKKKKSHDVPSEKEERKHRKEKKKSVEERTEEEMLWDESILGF

zbt14_human ZBTB14 = target: T4, zbt14_human ZBTB14 (UniProt O43829)
T4 sequence: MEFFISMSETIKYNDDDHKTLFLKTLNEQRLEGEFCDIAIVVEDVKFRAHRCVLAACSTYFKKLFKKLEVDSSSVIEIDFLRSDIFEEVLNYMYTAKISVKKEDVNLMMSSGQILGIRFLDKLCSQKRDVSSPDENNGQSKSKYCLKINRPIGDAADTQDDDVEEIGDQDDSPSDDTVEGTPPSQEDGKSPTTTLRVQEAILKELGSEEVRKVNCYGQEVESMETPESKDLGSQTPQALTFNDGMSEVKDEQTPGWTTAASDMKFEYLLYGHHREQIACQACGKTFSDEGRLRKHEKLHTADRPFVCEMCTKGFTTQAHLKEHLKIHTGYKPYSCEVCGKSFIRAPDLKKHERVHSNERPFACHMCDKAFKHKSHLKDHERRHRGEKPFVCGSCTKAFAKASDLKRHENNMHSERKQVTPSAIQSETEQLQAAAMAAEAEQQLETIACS

traf1_human TRAF1 = target: T5, traf1_human TRAF1 (UniProt Q13077)
T5 sequence: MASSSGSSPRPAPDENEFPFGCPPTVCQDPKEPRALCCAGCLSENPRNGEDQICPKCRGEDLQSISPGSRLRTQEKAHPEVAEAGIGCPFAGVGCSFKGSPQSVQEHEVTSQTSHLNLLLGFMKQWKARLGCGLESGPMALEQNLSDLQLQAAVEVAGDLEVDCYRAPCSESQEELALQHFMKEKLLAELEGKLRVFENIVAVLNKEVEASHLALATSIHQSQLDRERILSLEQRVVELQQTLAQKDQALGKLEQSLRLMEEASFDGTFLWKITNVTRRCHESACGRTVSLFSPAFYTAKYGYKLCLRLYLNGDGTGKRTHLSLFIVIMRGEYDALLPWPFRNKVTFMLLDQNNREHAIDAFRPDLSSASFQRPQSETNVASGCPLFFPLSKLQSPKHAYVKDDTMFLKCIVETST

kctd9_human KCTD9 = target: T6, kctd9_human KCTD9 (UniProt Q7L273)
T6 sequence: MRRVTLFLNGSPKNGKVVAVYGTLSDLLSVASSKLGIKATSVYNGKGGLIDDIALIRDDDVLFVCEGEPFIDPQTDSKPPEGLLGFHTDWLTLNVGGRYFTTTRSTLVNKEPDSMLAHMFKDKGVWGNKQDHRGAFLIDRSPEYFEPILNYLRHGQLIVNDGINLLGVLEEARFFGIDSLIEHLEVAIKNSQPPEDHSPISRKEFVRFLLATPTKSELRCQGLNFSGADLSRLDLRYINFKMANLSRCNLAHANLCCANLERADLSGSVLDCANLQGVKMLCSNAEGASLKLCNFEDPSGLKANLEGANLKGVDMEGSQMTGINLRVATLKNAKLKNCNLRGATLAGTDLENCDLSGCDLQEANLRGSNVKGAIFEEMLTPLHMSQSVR

itf2_human TCF4 = itf2_human TCF4 (UniProt P15884)
itf2_human TCF4, sequence (P15884 whole entry): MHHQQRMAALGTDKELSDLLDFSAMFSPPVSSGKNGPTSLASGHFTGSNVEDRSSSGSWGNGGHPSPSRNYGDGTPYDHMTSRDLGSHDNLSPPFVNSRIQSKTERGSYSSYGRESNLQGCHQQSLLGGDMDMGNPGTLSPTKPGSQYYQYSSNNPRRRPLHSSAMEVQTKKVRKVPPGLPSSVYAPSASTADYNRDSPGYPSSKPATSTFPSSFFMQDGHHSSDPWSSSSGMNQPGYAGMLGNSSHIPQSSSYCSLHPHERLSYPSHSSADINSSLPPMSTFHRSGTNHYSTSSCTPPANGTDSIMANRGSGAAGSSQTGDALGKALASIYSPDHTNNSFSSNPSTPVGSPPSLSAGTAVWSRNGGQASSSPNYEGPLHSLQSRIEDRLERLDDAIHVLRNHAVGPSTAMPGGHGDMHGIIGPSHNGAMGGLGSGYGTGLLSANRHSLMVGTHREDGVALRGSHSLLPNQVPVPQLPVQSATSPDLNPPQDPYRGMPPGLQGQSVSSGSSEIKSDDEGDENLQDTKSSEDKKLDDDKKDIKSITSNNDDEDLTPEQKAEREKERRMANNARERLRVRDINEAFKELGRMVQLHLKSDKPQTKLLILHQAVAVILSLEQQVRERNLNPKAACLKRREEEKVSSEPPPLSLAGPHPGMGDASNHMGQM

ei2ba_human EIF2B1 = target: T7, ei2ba_human EIF2B1 (UniProt Q14232)
T7 sequence: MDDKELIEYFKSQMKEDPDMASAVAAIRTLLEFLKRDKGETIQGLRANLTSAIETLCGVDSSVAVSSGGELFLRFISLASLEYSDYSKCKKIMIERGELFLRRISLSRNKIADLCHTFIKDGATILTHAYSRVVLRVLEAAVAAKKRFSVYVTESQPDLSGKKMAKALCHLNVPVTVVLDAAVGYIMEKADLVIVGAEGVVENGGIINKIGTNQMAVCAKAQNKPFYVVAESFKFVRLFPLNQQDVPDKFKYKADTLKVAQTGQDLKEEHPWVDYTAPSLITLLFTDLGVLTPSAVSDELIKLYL

ar6p1_human ARL6IP1 = ar6p1_human ARL6IP1 (UniProt Q15041)
ar6p1_human ARL6IP1, sequence (Q15041 whole entry): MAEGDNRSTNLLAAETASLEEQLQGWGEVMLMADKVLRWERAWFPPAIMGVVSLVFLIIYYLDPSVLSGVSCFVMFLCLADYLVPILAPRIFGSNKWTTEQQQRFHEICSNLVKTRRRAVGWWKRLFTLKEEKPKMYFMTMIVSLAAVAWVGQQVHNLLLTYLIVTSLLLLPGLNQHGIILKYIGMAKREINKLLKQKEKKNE

cryaa_human CRYAA = target: T8, cryaa_human CRYAA (UniProt P02489)
T8 sequence: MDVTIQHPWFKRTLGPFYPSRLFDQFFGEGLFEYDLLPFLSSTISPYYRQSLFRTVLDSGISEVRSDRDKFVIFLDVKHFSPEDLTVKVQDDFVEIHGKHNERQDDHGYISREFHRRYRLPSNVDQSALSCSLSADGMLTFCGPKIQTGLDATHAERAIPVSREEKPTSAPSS

dpyl2_human DPYSL2 = dpyl2_human DPYSL2 (UniProt Q16555)

nup62_human NUP62, sequence (P37198 whole entry): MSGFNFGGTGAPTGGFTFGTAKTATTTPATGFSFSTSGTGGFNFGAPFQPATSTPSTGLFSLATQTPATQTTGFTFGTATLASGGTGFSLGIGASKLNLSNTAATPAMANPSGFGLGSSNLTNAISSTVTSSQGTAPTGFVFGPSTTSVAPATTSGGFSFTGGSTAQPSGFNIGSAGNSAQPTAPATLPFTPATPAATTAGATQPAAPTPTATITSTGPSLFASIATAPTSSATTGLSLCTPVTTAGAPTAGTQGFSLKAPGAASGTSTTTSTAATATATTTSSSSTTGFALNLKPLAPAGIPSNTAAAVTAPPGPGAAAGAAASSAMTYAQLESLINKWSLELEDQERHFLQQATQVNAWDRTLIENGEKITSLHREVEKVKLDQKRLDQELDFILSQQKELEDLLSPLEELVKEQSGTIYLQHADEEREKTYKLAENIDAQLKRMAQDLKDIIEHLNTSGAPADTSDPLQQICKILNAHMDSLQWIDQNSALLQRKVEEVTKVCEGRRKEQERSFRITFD

Golgi reassembly-stacking protein 2 (Homo sapiens) (from UniProt Q9H8Y8) L320R
effect of a mutation on the interaction (nup62_human NUP62): disrupting interaction strength
effect of a mutation on the interaction (prps1_human PRPS1): with no effect
effect of a mutation on the interaction (prdx3_human PRDX3): disrupting interaction strength
effect of a mutation on the interaction (tle5_human TLE5): disrupting interaction strength
effect of a mutation on the interaction (zmat1_human ZMAT1): with no effect
effect of a mutation on the interaction (zbt14_human ZBTB14): with no effect
effect of a mutation on the interaction (traf1_human TRAF1): with no effect
effect of a mutation on the interaction (kctd9_human KCTD9): with no effect
effect of a mutation on the interaction (itf2_human TCF4): with no effect
effect of a mutation on the interaction (ei2ba_human EIF2B1): with no effect
effect of a mutation on the interaction (ar6p1_human ARL6IP1): with no effect
effect of a mutation on the interaction (cryaa_human CRYAA): with no effect
effect of a mutation on the interaction (dpyl2_human DPYSL2): with no effect
